The target in assay [1] is T1, soluble mouse FcRn (mFcRn), with mouse β2-microglobulin (mouse, UniProt Q61559 22-290; P01887 21-119).
T1 sequence: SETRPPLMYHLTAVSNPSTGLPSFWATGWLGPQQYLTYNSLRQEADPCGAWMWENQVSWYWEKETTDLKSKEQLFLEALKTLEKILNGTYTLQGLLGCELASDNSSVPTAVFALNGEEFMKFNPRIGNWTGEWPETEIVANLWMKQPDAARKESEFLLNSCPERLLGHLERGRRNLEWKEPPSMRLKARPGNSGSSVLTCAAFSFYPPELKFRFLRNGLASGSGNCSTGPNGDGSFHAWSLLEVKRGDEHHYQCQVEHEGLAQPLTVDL
T1 sequence (b2m): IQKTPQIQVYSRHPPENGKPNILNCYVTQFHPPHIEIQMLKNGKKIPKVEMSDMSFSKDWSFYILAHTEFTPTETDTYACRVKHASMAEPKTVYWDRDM
Nature of the assay: SPR (Biacore T100), mouse FcRn immobilised on a CM4 chip, Fv4-IgG1 50 µg/mL alone or with hsIL6R 12.5 µg/mL as analyte, pH 7.4, 25 °C; bound amount normalised to 100 [i]. As to the method: (§1) Binding of an antigen-antibody immune complex with FcRn was assessed using Biacore T100 (GE Healthcare). […] Subsequently, a 20 mM Tris-HCl, 150 mM NaCl, pH 9.0 or pH 9.5 solution was injected to regenerate the sensor chip. A 50 mmol/L Na-Phosphate (phsophoric acid), 150 mmol/L NaCl, 0.05% Tween20, pH 7.4 buffer was used as the running buffer, and binding between the antigen-antibody immune complex and FcRn was measured at 25° C.

The target of assay [2] is T2, soluble human IL-6 receptor (hsIL-6R) (human, UniProt P08887 20-357).
T2 construct: also called hIL-6R
T2 sequence: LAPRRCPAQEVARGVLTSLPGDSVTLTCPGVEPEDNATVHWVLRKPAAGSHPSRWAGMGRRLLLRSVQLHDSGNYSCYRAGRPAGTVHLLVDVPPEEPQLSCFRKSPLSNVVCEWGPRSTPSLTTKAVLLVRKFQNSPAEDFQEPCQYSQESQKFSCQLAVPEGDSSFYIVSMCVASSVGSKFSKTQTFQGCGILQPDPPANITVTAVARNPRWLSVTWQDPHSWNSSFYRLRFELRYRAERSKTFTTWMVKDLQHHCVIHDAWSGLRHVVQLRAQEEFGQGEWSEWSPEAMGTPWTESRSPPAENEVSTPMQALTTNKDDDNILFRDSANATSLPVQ
Nature of the assay: ECL sandwich: biotinylated Fv4-IgG1 on streptavidin plate captures hsIL-6R, detected with ruthenium-labelled PHX-F29. On the procedure:
Whether or not two types of antibodies can bind to a single antigen simultaneously was evaluated by an electrochemiluminescence method. […] After washing, 100 μL of the hsIL-6R solutions prepared at 0, 0.2, 1, 5, and 25 μg/mL was added, and they were allowed to react at room temperature for one hour. […] After washing, 150 μL of Read Buffer T (×4) (Meso Scale Discovery) was dispensed into each well, and this was immediately followed by chemiluminescence measurement using the SECTOR IMAGER 2400 Reader (Meso Scale Discovery).

Assay [3] addresses T2, soluble human IL-6 receptor (hsIL-6R). Nature of the assay: SPR (Biacore T100), 25 C, pH 7.4; Fv4-F22 10 µg/mL with or without hsIL6R 2.5 µg/mL over immobilized hFcRn. As to the method: (§2) Binding of an antigen-antibody immune complex with human FcRn was assessed using Biacore T100 (GE Healthcare).
(§3) Subsequently, a 20 mM Tris-HCl, 150 mM NaCl, pH 9.0 or pH 9.5 solution was injected to regenerate the sensor chip. A 50 mmol/L Na-Phosphate (phosphoric acid), 150 mmol/L NaCl, 0.05% Tween20, pH 7.4 buffer was used as the running buffer, and binding between the antigen-antibody immune complex and FcRn was measured at 25° C.
A general note: SPR reads the build-up and loss of mass on a sensor chip optically.

Assay [4] addresses soluble human FcRn (hFcRn), complex with β2-microglobulin (human, UniProt P55899 24-290; P61769 21-119). Nature of the assay: SPR (Biacore T100), human FcRn immobilised on a CM4 chip, Fv4-F22 10 µg/mL alone or with hsIL6R 2.5 µg/mL as analyte, pH 7.4, 25 °C; bound amount normalised to 100 [i]. As to the method: as §2, §3
The target of assay [5] is Human IgA (hIgA), H (WT)-IgA1 / L (WT) (human). The assay can be described thus: >=.
In a further assay the target is T3, GC-hIgA-MYC (human).
T3 construct: also called hIgA-v2
The assay can be described thus: SPR (Biacore T200), 25 C, pH 7.4, 1.2 mM Ca; 200 nM antibody with or without 200 nM antigen over captured human FcγRIIIaV; immune complex shown by slower dissociation.

In assay [6] the target is T4, human IgE (variable region derived from an anti-human glypican3 antibody) (human).
T4 construct: also called hIgE
Nature of the assay: SPR (Biacore T200), 37 C; ratio of KD values. On the procedure:
Running buffers used in the assay were:
A chemically-synthetized peptide having a human glypican 3 protein-derived sequence (SEQ ID NO: 47) whose C-terminal Lys is biotinylated (hereinafter abbreviated as “biotinylated GPC3 peptide”) was added in an appropriate amount and immobilized onto Sensor chip SA (GE Healthcare) based on the affinity between biotin and streptavidin. Human IgE was immobilized onto the chip by injecting it at an appropriate concentration so as to be trapped by the biotinylated GPC3 peptide. […] Then, 10 mmol/L glycine-HCl (pH 1.5) was injected to regenerate the sensor chip. The interaction was always measured at 37° C. The measurement result was analyzed by curve fitting using Biacore T200 Evaluation Software (GE Healthcare) to calculate the association rate constant ka (1/Ms) and dissociation rate constant kd (1/s). The dissociation constant KD (M) was calculated from the above-described constants.

Assay [7] addresses T1, soluble mouse FcRn (mFcRn), with mouse …. The assay can be described thus: SPR (Biacore T100), mouse FcRn immobilised on a CM4 chip, clone 278-IgG1 50 µg/mL as analyte, pH 7.4, 25 °C; bound amount normalised to 100 [ii]. As to the method: as §1

The values that follow come from US20190218309A1 (Chugai, published 2019).

T4 sequence (heavy, as listed by the source): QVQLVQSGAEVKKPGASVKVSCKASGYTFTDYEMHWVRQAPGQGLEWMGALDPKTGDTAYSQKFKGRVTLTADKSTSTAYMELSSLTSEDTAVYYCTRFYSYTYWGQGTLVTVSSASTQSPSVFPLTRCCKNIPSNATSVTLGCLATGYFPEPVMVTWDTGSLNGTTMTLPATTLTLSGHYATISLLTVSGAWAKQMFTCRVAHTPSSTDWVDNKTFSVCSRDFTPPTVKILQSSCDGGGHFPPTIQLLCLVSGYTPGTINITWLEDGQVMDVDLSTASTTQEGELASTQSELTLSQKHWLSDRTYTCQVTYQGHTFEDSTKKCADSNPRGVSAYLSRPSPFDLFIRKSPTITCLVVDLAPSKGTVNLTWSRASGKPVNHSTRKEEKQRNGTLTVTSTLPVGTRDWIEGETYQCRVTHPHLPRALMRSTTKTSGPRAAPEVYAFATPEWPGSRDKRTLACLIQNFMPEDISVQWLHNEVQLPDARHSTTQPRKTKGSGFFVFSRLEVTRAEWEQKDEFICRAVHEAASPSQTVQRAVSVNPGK
T3 sequence (heavy, as listed by the source): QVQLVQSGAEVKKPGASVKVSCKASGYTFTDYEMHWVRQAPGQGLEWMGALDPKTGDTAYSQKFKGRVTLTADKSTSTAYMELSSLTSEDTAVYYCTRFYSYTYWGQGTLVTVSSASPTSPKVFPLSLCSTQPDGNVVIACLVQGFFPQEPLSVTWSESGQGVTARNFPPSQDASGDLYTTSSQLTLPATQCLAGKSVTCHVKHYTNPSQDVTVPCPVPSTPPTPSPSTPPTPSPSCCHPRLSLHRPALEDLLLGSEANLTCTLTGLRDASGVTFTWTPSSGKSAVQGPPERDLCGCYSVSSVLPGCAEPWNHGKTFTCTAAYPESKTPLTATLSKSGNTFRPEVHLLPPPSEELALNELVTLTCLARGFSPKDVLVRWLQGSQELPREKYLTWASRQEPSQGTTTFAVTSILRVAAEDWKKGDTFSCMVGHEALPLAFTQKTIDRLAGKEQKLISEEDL
Chain of soluble human FcRn (hFcRn), complex with β2-microglobulin (P55899 24-290 limits assumed, chain 1 of 2): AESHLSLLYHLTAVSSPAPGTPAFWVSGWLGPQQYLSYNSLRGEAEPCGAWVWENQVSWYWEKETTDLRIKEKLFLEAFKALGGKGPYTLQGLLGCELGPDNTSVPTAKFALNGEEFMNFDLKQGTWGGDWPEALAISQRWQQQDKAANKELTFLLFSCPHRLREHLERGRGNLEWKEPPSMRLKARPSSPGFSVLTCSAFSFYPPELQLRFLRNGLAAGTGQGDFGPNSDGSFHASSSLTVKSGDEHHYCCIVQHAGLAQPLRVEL
Chain of soluble human FcRn (hFcRn), complex with β2-microglobulin (P61769 21-119 limits assumed, chain 2 of 2): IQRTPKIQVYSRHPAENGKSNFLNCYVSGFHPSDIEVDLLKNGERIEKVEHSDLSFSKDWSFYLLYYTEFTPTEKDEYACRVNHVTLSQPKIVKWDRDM
Chain of Human IgA (hIgA), H (WT)-IgA1 / L (WT) (human) (VH, as listed by the source): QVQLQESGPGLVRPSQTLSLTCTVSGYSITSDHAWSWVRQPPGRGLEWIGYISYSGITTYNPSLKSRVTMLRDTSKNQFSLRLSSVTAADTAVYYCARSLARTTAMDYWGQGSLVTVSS
Protocol for GC-hIgA-MYC: Binding of an antigen-antibody immune complex with FcγR was assessed using Biacore T200 (GE Healthcare).
A suitable amount of the Penta-His Antibody (QIAGEN) was immobilized onto Sensor chip CM5 (GE Healthcare) by an amine coupling method; and a suitable concentration of his-tagged human FcγR IIIaV was injected. Human FcγR IIIaV was immobilized onto the chip by allowing the penta-His antibody immobilized on the chip to capture human FcγR IIIaV. A solution containing 200 nM antibody or a mixed solution containing 200 nM antibody and 200 nM antigen was injected as the analyte; and it was allowed to interact with human FcγR IIIaV immobilized on the sensor chip. Subsequently, a 10 mmol/L Glycine-HCl, pH2.5 solution was injected to regenerate the sensorchip. A 1.2 mmol/L CaCl₂/0.05% tween20, 20 mmol/L ACES, 150 mmol/L NaCl, pH 7.4 buffer was used as the running buffer, and binding between the antigen-antibody immune complex and FcγR was measured at 25° C.

B1: Fv4-IgG1 (antibody)
heavy: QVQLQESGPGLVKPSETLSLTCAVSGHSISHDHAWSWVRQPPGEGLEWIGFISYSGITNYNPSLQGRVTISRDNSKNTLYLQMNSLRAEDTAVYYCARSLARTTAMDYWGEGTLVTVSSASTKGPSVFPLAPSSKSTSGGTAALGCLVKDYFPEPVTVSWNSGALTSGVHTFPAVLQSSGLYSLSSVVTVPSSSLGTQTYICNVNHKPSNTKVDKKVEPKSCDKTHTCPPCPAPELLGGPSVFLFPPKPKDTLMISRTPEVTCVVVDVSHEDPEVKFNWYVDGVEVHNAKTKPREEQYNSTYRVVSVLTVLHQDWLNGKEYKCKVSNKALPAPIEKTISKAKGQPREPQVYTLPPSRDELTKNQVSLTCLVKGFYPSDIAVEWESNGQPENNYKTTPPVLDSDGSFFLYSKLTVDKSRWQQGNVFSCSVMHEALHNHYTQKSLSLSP
light: DIQMTQSPSSLSASVGDSVTITCQASTDISSHLNWYQQKPGKAPELLIYYGSHLLSGVPSRFSGSGSGTDFTFTISSLEAEDAATYYCGQGNRLPYTFGQGTKVEIERTVAAPSVFIFPPSDEQLKSGTASVVCLLNNFYPREAKVQWKVDNALQSGNSQESVTEQDSKDSTYSLSSTLTLSKADYEKHKVYACEVTHQGLSSPVTKSFNRGEC
notes: pH-dependent anti-human IL-6 receptor antibody
With B1, the binding result in assay [1] and in assay [2] was “binds” throughout.

B2: Fv4-F22 (antibody, human IgG1, kappa)
heavy: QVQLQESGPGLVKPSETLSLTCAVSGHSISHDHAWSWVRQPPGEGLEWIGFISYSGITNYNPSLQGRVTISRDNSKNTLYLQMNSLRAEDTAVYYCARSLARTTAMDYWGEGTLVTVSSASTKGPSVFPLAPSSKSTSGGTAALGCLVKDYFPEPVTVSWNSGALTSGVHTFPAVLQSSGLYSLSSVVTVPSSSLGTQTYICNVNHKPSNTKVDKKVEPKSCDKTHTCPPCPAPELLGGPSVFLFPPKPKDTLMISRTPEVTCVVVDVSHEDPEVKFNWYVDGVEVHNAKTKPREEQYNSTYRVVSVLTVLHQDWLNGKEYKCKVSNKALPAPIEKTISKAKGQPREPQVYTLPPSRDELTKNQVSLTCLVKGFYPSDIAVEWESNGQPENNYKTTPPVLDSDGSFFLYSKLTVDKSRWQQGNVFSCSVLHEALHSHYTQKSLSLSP
light: DIQMTQSPSSLSASVGDSVTITCQASTDISSHLNWYQQKPGKAPELLIYYGSHLLSGVPSRFSGSGSGTDFTFTISSLEAEDAATYYCGQGNRLPYTFGQGTKVEIERTVAAPSVFIFPPSDEQLKSGTASVVCLLNNFYPREAKVQWKVDNALQSGNSQESVTEQDSKDSTYSLSSTLTLSKADYEKHKVYACEVTHQGLSSPVTKSFNRGEC
Take B2: the binding result in assay [3] and in assay [4] was “binds” in each case.

B3: GA2-IgG1 (antibody, V domains shown)
VH: QVQLVQSGAEVKKPGSSVKVSCKASGGTFSSYAISWVRQAPGQGLEWMGGIIPIFGTANYAQKFQGRVTITADESTSTAYMELSSLRSEDTAVYYCARPRWETAISSDAFDIWGQGTMVTVSS
VL: DIQMTQSPSSLSASVGDRVTITCRASQSISDDLNWYQQKPGKAPKLLIYEASNLQSGVPSRFSGSGSGTDFTLTISSLQPEDFATYYCQQHSSSPLTFGQGTKVEIKR
notes: also called GA-IgG1
In the case of B3, the “Ca-dependent binding activity (fold)” value in assay [5] worked out at 100 times. Besides, in the assay with GC-hIgA-MYC, the binding result is listed as “binds”.

B4: clone 278 (antibody, human IgG1, kappa)
heavy: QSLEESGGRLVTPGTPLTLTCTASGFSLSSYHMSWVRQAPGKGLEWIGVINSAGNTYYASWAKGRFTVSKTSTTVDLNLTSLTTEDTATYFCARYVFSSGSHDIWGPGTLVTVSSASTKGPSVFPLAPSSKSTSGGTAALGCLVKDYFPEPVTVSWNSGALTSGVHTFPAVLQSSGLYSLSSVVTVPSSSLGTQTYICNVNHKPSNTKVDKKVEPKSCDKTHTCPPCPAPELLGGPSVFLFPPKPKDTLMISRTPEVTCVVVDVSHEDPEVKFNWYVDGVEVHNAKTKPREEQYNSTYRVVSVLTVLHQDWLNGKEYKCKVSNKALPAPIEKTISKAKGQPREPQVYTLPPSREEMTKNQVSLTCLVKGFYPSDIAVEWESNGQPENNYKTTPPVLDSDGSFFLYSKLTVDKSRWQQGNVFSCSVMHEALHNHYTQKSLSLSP
light: AYDMTQTPASVEVAVGGTVTIKCQASQSIGSWLAWYQQKPGQPPKELIYGTSTLESGVPSRFIGSGSGTEFTLTISGVECADAATYYCQQGYSEDNIDNAFGGGTEVVVKRTVAAPSVFIFPPSDEQLKSGTASVVCLLNNFYPREAKVQWKVDNALQSGNSQESVTEQDSKDSTYSLSSTLTLSKADYEKHKVYACEVTHQGLSSPVTKSFNRGEC
notes: pH-dependent anti-human IgE antibody with a human IgG1 heavy chain constant region and a human light chain constant region
Regarding B4, in assay [6], the “pH dependency, KD (pH 5.8, 1.2 mM Ca)/KD (pH 7.4, 1.2 mM Ca)” value worked out at 842 ratio and the “pH/Ca dependency, KD (pH 5.8, 3 µM Ca)/KD (pH 7.4, 1.2 mM Ca)” value was 1640 ratio. In addition, the binding result in assay [7] was “binds”.
